Experimental data published in patent publication US20110053851A1.

Biological target: human FXa (human) (UniProt P00742)
Test: cell-based or functional assay

Chain of UniProt P00742 (P00742 41-488 limits assumed): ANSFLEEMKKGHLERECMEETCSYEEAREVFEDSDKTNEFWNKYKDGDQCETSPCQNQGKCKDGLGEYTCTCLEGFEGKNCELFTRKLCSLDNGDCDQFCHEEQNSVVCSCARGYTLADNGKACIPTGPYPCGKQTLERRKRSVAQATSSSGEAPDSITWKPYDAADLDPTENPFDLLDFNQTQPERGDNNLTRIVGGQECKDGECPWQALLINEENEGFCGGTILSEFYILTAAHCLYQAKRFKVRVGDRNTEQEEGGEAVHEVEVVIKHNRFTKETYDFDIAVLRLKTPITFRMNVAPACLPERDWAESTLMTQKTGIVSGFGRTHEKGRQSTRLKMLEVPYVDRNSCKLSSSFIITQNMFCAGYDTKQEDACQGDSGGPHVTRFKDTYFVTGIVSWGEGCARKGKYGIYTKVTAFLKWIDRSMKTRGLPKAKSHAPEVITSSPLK

P. textilis snake venom FV
CT (ave) (sec), citrated plasma; Fva 10 (1/10), PL 50, Ca 50: 23.7 s
CT (ave) (sec), citrated plasma; Fva 10 (1/100), PL 50, Ca 50: 54.7 s
CT (ave) (sec), citrated plasma; Fva 25 (1/10), PL 50, Ca 50: 19.7 s
CT (ave) (sec), citrated plasma; Fva 25 (1/100), PL 50, Ca 50: 41 s
CT (ave) (sec), citrated plasma; Fva 50 (1/10), PL 0, Ca 50: 67.5 s
CT (ave) (sec), citrated plasma; Fva 50 (1/10), PL 50, Ca 50: 18 s
CT (ave) (sec), citrated plasma; Fva 50 (1/100), PL 0, Ca 50: 90.8 s
CT (ave) (sec), citrated plasma; Fva 50 (1/100), PL 50, Ca 50: 31.6 s
CT (ave) (sec), citrated plasma; Fva 50 (1/1000), PL 0, Ca 50: > 300 s
CT (ave) (sec), citrated plasma; Fva 50 (1/1000), PL 50, Ca 50: 68.7 s
CT (ave) (sec), citrated plasma; Fva (A280 = 1.080) 10, PL 50, Ca 50: 15 s
CT (ave) (sec), citrated plasma; Fva (A280 = 1.080) 25, PL 50, Ca 50: 13.6 s
CT (ave) (sec), citrated plasma; Fva (A280 = 1.080) 50, PL 0, Ca 50: 54.3 s
CT (ave) (sec), citrated plasma; Fva (A280 = 1.080) 50, PL 50, Ca 0: > 300 s
CT (ave) (sec), citrated plasma; Fva (A280 = 1.080) 50, PL 50, Ca 50: 12.7 s
Citrated Plasma Clotting Time (Sec) at FV 0.7 nM (0 nM FV: 151): 69 s
Citrated Plasma Clotting Time (Sec) at FV 7 nM (0 nM FV: 151): 32 s
Citrated Plasma Clotting Time (Sec) at FV 70 nM (0 nM FV: 151): 18 s
Citrated Plasma Clotting Time (Sec) at FV 700 nM (0 nM FV: 151): 13 s
Clotting time (sec) (1), citrated plasma; Fva 10 (1/10), PL 50, Ca 50: 24.1 s
Clotting time (sec) (1), citrated plasma; Fva 10 (1/100), PL 50, Ca 50: 53.3 s
Clotting time (sec) (1), citrated plasma; Fva 25 (1/10), PL 50, Ca 50: 19.6 s
Clotting time (sec) (1), citrated plasma; Fva 25 (1/100), PL 50, Ca 50: 39.5 s
Clotting time (sec) (1), citrated plasma; Fva 50 (1/10), PL 0, Ca 50: 68.9 s
Clotting time (sec) (1), citrated plasma; Fva 50 (1/10), PL 50, Ca 50: 18.3 s
Clotting time (sec) (1), citrated plasma; Fva 50 (1/100), PL 0, Ca 50: 84.3 s
Clotting time (sec) (1), citrated plasma; Fva 50 (1/100), PL 50, Ca 50: 32.3 s
Clotting time (sec) (1), citrated plasma; Fva 50 (1/1000), PL 0, Ca 50: > 300 s
Clotting time (sec) (1), citrated plasma; Fva 50 (1/1000), PL 50, Ca 50: 69.7 s
Clotting time (sec) (1), citrated plasma; Fva (A280 = 1.080) 10, PL 50, Ca 50: 15.2 s
Clotting time (sec) (1), citrated plasma; Fva (A280 = 1.080) 25, PL 50, Ca 50: 13.3 s
Clotting time (sec) (1), citrated plasma; Fva (A280 = 1.080) 50, PL 0, Ca 50: 54.1 s
Clotting time (sec) (1), citrated plasma; Fva (A280 = 1.080) 50, PL 50, Ca 0: > 300 s
Clotting time (sec) (1), citrated plasma; Fva (A280 = 1.080) 50, PL 50, Ca 50: 12.6 s
Clotting time (sec) (2), citrated plasma; Fva 10 (1/10), PL 50, Ca 50: 23.4 s
Clotting time (sec) (2), citrated plasma; Fva 10 (1/100), PL 50, Ca 50: 56 s
Clotting time (sec) (2), citrated plasma; Fva 25 (1/10), PL 50, Ca 50: 19.8 s
Clotting time (sec) (2), citrated plasma; Fva 25 (1/100), PL 50, Ca 50: 42.5 s
Clotting time (sec) (2), citrated plasma; Fva 50 (1/10), PL 0, Ca 50: 67 s
Clotting time (sec) (2), citrated plasma; Fva 50 (1/10), PL 50, Ca 50: 17.6 s
Clotting time (sec) (2), citrated plasma; Fva 50 (1/100), PL 0, Ca 50: 97.4 s
Clotting time (sec) (2), citrated plasma; Fva 50 (1/100), PL 50, Ca 50: 31 s
Clotting time (sec) (2), citrated plasma; Fva 50 (1/1000), PL 0, Ca 50: > 300 s
Clotting time (sec) (2), citrated plasma; Fva 50 (1/1000), PL 50, Ca 50: 67.7 s
Clotting time (sec) (2), citrated plasma; Fva (A280 = 1.080) 10, PL 50, Ca 50: 14.8 s
Clotting time (sec) (2), citrated plasma; Fva (A280 = 1.080) 25, PL 50, Ca 50: 13.8 s
Clotting time (sec) (2), citrated plasma; Fva (A280 = 1.080) 50, PL 0, Ca 50: 54.5 s
Clotting time (sec) (2), citrated plasma; Fva (A280 = 1.080) 50, PL 50, Ca 0: > 300 s
Clotting time (sec) (2), citrated plasma; Fva (A280 = 1.080) 50, PL 50, Ca 50: 12.8 s
clotting time of re-calcified citrated whole blood with 20 nM APC and 280 nM snake venom FV (no APC: 505 seconds; APC alone: 1333 seconds): 127 s
